10 molecules from US20170306033A1 (Amgen, published 2017) can be followed below.

In one experiment the target is T1, human PAC1 receptor (human, UniProt P41586 21-468).
T1 sequence: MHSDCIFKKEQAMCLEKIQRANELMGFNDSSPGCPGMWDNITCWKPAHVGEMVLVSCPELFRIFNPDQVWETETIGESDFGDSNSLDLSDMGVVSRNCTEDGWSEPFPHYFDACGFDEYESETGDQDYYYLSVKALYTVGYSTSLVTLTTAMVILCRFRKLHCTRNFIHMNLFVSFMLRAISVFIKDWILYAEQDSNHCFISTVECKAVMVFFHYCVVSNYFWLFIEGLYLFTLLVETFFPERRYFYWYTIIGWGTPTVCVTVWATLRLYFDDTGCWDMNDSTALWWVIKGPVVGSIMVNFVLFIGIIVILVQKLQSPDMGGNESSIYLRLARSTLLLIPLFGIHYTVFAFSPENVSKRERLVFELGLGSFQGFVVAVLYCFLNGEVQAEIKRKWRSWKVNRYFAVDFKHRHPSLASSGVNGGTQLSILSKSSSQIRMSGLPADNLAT
In words: cell-based or functional assay.

The next experiment addresses human CGRP receptor (human, UniProt Q16602 23-461; O60894 27-148). In words: cell-based or functional assay.

Sequence of human CGRP receptor (Q16602 23-461 limits assumed, chain 1 of 2): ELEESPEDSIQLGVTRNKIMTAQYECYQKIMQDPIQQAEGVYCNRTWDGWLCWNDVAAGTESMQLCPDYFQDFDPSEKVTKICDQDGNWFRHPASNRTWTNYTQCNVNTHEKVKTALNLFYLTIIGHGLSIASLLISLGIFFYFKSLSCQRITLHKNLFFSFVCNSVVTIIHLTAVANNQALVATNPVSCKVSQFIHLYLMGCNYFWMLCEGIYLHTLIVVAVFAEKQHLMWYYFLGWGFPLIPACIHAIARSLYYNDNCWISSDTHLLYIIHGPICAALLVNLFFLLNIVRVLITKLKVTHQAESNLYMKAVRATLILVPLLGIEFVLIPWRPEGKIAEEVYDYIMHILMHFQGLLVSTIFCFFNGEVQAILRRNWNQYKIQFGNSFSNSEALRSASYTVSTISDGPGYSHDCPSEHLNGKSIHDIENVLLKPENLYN
Sequence of human CGRP receptor (O60894 27-148 limits assumed, chain 2 of 2): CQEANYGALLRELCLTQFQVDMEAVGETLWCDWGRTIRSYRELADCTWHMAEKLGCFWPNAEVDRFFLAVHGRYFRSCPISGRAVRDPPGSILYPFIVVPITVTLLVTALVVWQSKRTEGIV

B1: iPS:392526 (bispecific antibody, human IgG1, kappa, lambda, N297G)
light: QSVLTQPPSVSAAPGQKVTISCSGSSSNIGNNYVSWYQQLPGTAPKLLIYDNNKRPSGIPDRFSGSKSGTSTTLGITGLQTGDEADYYCGTWDSRLSAVVFGGGTKLTVLGQPKANPTVTLFPPSSEELQANKATLVCLISDFYPGAVTVAWKADGSPVKAGVETTKPSKQSNNKYAAKSYLSLTPEQWKSHRSYSCQVTHEGSTVEKTVAPTECS
heavy: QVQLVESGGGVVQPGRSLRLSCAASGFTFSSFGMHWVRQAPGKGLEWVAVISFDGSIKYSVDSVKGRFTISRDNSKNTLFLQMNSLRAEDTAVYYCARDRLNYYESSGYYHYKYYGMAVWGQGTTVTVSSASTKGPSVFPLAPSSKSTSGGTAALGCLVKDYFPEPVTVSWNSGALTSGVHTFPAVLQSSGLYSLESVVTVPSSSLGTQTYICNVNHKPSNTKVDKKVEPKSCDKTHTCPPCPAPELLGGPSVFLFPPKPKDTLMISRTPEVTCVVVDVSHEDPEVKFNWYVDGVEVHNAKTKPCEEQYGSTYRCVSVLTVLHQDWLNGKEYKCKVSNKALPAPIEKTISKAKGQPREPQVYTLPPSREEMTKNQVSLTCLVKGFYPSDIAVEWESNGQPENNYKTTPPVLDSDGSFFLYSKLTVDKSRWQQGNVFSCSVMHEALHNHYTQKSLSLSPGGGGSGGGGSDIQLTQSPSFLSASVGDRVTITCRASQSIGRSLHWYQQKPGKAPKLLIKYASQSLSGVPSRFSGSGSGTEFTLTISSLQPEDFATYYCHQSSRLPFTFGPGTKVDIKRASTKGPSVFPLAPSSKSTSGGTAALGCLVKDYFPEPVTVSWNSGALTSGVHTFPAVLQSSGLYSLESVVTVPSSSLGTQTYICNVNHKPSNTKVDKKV
chain: QVQLVESGAEVVKPGASVKVSCKASGFTFSRFAMHWVRQAPGQGLEWMGVISYDGGNKYYAESVKGRVTMTRDTSTSTLYMELSSLRSEDTAVYYCARGYDVLTGYPDYWGQGTLVTVSSTVAAPSVFIFPPSDEQLKSGTASVVCLLNNFYPREAKVQWKVDNALQSGNSQESVTEQDSKDSTYSLKSTLTLSKADYEKHKVYACEVTHQGLSSPVTKSFNRGEC
As to B1, in the experiment with human PAC1 receptor, the “Human PAC1 Receptor IC50” value was 116 nM. Also, the “Human CGRP Receptor IC50” value with human CGRP receptor turned out to be 0.71 nM.

B2: iPS:392532 (bispecific antibody, human IgG1, kappa, lambda, N297G)
light: QSVLTQPPSVSAAPGQKVTISCSGSSSNIGNNYVSWYQQLPGTAPKLLIYDNNKRPSGIPDRFSGSKSGTSTTLGITGLQTGDEADYYCGTWDSRLSAVVFGGGTKLTVLGQPKANPTVTLFPPSSEELQANKATLVCLISDFYPGAVTVAWKADGSPVKAGVETTKPSKQSNNKYAAKSYLSLTPEQWKSHRSYSCQVTHEGSTVEKTVAPTECS
heavy: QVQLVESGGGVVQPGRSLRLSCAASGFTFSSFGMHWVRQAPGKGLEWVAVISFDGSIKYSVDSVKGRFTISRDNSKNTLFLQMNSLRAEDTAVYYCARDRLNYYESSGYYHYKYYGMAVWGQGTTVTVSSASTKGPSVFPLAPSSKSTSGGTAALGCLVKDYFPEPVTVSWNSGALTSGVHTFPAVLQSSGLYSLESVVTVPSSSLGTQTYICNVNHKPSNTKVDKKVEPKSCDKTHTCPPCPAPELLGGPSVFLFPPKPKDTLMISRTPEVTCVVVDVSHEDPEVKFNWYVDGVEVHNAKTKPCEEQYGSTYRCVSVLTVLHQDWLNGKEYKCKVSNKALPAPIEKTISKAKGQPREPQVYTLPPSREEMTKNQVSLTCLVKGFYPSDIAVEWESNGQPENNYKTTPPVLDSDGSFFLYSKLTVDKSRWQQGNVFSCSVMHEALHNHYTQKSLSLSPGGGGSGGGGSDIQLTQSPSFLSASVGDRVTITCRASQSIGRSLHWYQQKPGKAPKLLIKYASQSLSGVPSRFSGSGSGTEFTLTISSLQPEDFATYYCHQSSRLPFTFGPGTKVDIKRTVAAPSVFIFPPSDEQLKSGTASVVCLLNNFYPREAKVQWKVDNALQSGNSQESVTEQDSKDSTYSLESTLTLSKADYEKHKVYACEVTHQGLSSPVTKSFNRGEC
chain: QVQLVESGAEVVKPGASVKVSCKASGFTFSRFAMHWVRQAPGQGLEWMGVISYDGGNKYYAESVKGRVTMTRDTSTSTLYMELSSLRSEDTAVYYCARGYDVLTGYPDYWGQGTLVTVSSASTKGPSVFPLAPSSKSTSGGTAALGCLVKDYFPEPVTVSWNSGALTSGVHTFPAVLQSSGLYSLKSVVTVPSSSLGTQTYICNVNHKPSNTKVDKKV
As for B2, the “Human PAC1 Receptor IC50” value in the experiment with human PAC1 receptor worked out at 352 nM. The “Human CGRP Receptor IC50” value with human CGRP receptor was determined as 0.51 nM.

B3: iPS:392527 (bispecific antibody, human IgG1, kappa, lambda, N297G)
light: QSVLTQPPSVSAAPGQKVTISCSGSSSNIGNNYVSWYQQLPGTAPKLLIYDNNKRPSGIPDRFSGSKSGTSTTLGITGLQTGDEADYYCGTWDSRLSAVVFGGGTKLTVLGQPKANPTVTLFPPSSEELQANKATLVCLISDFYPGAVTVAWKADGSPVKAGVETTKPSKQSNNKYAAKSYLSLTPEQWKSHRSYSCQVTHEGSTVEKTVAPTECS
heavy: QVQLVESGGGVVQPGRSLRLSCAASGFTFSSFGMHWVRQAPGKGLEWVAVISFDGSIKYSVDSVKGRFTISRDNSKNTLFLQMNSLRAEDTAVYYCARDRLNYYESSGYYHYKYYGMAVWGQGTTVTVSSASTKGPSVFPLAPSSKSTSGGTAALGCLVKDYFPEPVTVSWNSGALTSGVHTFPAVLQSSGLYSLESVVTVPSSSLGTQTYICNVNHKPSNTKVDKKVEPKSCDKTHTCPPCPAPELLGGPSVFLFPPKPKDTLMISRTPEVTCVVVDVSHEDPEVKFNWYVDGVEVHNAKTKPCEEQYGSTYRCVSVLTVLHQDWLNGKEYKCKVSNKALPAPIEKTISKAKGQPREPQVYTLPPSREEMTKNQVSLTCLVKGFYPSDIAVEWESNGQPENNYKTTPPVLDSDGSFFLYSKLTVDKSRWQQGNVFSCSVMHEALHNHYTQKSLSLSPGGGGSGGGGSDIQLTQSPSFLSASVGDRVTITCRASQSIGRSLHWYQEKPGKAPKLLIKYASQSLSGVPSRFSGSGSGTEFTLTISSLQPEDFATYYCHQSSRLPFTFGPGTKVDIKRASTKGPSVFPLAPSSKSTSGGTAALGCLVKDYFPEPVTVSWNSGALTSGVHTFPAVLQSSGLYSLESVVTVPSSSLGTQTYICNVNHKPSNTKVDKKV
chain: QVQLVESGAEVVKPGASVKVSCKASGFTFSRFAMHWVRKAPGQGLEWMGVISYDGGNKYYAESVKGRVTMTRDTSTSTLYMELSSLRSEDTAVYYCARGYDVLTGYPDYWGQGTLVTVSSTVAAPSVFIFPPSDEQLKSGTASVVCLLNNFYPREAKVQWKVDNALQSGNSQESVTEQDSKDSTYSLKSTLTLSKADYEKHKVYACEVTHQGLSSPVTKSFNRGEC
On to B3, for which the “Human PAC1 Receptor IC50” value with human PAC1 receptor was found to be 16.4 nM. The “Human CGRP Receptor IC50” value with human CGRP receptor is 0.42 nM.

B4: iPS:392531 (bispecific antibody, human IgG1, kappa, lambda, N297G)
light: QSVLTQPPSVSAAPGQKVTISCSGSSSNIGNNYVSWYQKLPGTAPKLLIYDNNKRPSGIPDRFSGSKSGTSTTLGITGLQTGDEADYYCGTWDSRLSAVVFGGGTKLTVLGQPKANPTVTLFPPSSEELQANKATLVCLISDFYPGAVTVAWKADGSPVKAGVETTKPSKQSNNKYAAKSYLSLTPEQWKSHRSYSCQVTHEGSTVEKTVAPTECS
heavy: not shown
chain: QVQLVESGAEVVKPGASVKVSCKASGFTFSRFAMHWVRKAPGQGLEWMGVISYDGGNKYYAESVKGRVTMTRDTSTSTLYMELSSLRSEDTAVYYCARGYDVLTGYPDYWGQGTLVTVSSASTKGPSVFPLAPSSKSTSGGTAALGCLVKDYFPEPVTVSWNSGALTSGVHTFPAVLQSSGLYSLKSVVTVPSSSLGTQTYICNVNHKPSNTKVDKKV
As to B4, the “Human PAC1 Receptor IC50” value with human PAC1 receptor was greater than 1000 nM. The “Human CGRP Receptor IC50” value with human CGRP receptor was determined as 0.42 nM.

B5: iPS:392535 (bispecific antibody, human IgG1, kappa, lambda, N297G)
light: QSVLTQPPSVSAAPGQKVTISCSGSSSNIGNNYVSWYQKLPGTAPKLLIYDNNKRPSGIPDRFSGSKSGTSTTLGITGLQTGDEADYYCGTWDSRLSAVVFGGGTKLTVLGQPKANPTVTLFPPSSEELQANKATLVCLISDFYPGAVTVAWKADGSPVKAGVETTKPSKQSNNKYAAKSYLSLTPEQWKSHRSYSCQVTHEGSTVEKTVAPTECS
heavy: not shown
chain: QVQLVESGAEVVKPGASVKVSCKASGFTFSRFAMHWVRKAPGQGLEWMGVISYDGGNKYYAESVKGRVTMTRDTSTSTLYMELSSLRSEDTAVYYCARGYDVLTGYPDYWGQGTLVTVSSASTKGPSVFPLAPSSKSTSGGTAALGCLVKDYFPEPVTVSWNSGALTSGVHTFPAVLQSSGLYSLKSVVTVPSSSLGTQTYICNVNHKPSNTKVDKKV
As for B5, in the experiment with human PAC1 receptor, the “Human PAC1 Receptor IC50” value was found to be 365 nM. In addition, the “Human CGRP Receptor IC50” value in the experiment with human CGRP receptor turned out to be 0.41 nM.

B6: iPS:392534 (bispecific antibody, human IgG1, kappa, lambda, N297G)
light: QSVLTQPPSVSAAPGQKVTISCSGSSSNIGNNYVSWYQKLPGTAPKLLIYDNNKRPSGIPDRFSGSKSGTSTTLGITGLQTGDEADYYCGTWDSRLSAVVFGGGTKLTVLGQPKANPTVTLFPPSSEELQANKATLVCLISDFYPGAVTVAWKADGSPVKAGVETTKPSKQSNNKYAAKSYLSLTPEQWKSHRSYSCQVTHEGSTVEKTVAPTECS
heavy: not shown
chain: QVQLVESGAEVVKPGASVKVSCKASGFTFSRFAMHWVRQAPGQGLEWMGVISYDGGNKYYAESVKGRVTMTRDTSTSTLYMELSSLRSEDTAVYYCARGYDVLTGYPDYWGQGTLVTVSSASTKGPSVFPLAPSSKSTSGGTAALGCLVKDYFPEPVTVSWNSGALTSGVHTFPAVLQSSGLYSLKSVVTVPSSSLGTQTYICNVNHKPSNTKVDKKV
As to B6, the “Human PAC1 Receptor IC50” value with human PAC1 receptor stood at 349 nM. Further, the “Human CGRP Receptor IC50” value in the experiment with human CGRP receptor amounted to 0.37 nM.

B7: iPS:392530 (bispecific antibody, human IgG1, kappa, lambda, N297G)
light: QSVLTQPPSVSAAPGQKVTISCSGSSSNIGNNYVSWYQKLPGTAPKLLIYDNNKRPSGIPDRFSGSKSGTSTTLGITGLQTGDEADYYCGTWDSRLSAVVFGGGTKLTVLGQPKANPTVTLFPPSSEELQANKATLVCLISDFYPGAVTVAWKADGSPVKAGVETTKPSKQSNNKYAAKSYLSLTPEQWKSHRSYSCQVTHEGSTVEKTVAPTECS
heavy: not shown
chain: QVQLVESGAEVVKPGASVKVSCKASGFTFSRFAMHWVRQAPGQGLEWMGVISYDGGNKYYAESVKGRVTMTRDTSTSTLYMELSSLRSEDTAVYYCARGYDVLTGYPDYWGQGTLVTVSSASTKGPSVFPLAPSSKSTSGGTAALGCLVKDYFPEPVTVSWNSGALTSGVHTFPAVLQSSGLYSLKSVVTVPSSSLGTQTYICNVNHKPSNTKVDKKV
As to B7, the “Human PAC1 Receptor IC50” value in the experiment with human PAC1 receptor was greater than 1000 nM. In the experiment with human CGRP receptor, the “Human CGRP Receptor IC50” value came out at 0.38 nM.

B8: iPS:392529 (bispecific antibody, human IgG1, kappa, lambda, N297G)
light: QSVLTQPPSVSAAPGQKVTISCSGSSSNIGNNYVSWYQQLPGTAPKLLIYDNNKRPSGIPDRFSGSKSGTSTTLGITGLQTGDEADYYCGTWDSRLSAVVFGGGTKLTVLGQPKANPTVTLFPPSSEELQANKATLVCLISDFYPGAVTVAWKADGSPVKAGVETTKPSKQSNNKYAAKSYLSLTPEQWKSHRSYSCQVTHEGSTVEKTVAPTECS
heavy: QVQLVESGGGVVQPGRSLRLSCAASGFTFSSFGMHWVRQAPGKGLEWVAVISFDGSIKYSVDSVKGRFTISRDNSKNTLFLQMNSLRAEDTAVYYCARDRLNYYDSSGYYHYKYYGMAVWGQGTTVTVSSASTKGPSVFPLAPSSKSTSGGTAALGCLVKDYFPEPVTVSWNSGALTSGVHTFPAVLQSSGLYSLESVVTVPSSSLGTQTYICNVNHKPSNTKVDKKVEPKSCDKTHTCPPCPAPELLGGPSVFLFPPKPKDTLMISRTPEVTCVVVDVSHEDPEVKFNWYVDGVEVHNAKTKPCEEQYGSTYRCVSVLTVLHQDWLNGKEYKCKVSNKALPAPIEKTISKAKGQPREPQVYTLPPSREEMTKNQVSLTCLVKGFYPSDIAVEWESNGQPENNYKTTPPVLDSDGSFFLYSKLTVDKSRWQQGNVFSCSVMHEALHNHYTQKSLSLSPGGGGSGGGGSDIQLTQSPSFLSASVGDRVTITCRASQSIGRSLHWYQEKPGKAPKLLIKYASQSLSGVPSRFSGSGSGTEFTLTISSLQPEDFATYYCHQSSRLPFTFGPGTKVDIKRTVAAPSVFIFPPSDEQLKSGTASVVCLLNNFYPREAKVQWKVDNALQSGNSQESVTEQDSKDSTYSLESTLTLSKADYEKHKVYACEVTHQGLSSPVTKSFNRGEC
chain: QVQLVESGAEVVKPGASVKVSCKASGFTFSRFAMHWVRKAPGQGLEWMGVISYDGGNKYYAESVKGRVTMTRDTSTSTLYMELSSLRSEDTAVYYCARGYDVLTGYPDYWGQGTLVTVSSASTKGPSVFPLAPSSKSTSGGTAALGCLVKDYFPEPVTVSWNSGALTSGVHTFPAVLQSSGLYSLKSVVTVPSSSLGTQTYICNVNHKPSNTKVDKKV
With B8, the “Human PAC1 Receptor IC50” value in the experiment with human PAC1 receptor was greater than 1000 nM. Besides, the “Human CGRP Receptor IC50” value in the experiment with human CGRP receptor was found to be 0.56 nM.

B9: iPS:392528 (bispecific antibody, human IgG1, kappa, lambda, N297G)
light: QSVLTQPPSVSAAPGQKVTISCSGSSSNIGNNYVSWYQQLPGTAPKLLIYDNNKRPSGIPDRFSGSKSGTSTTLGITGLQTGDEADYYCGTWDSRLSAVVFGGGTKLTVLGQPKANPTVTLFPPSSEELQANKATLVCLISDFYPGAVTVAWKADGSPVKAGVETTKPSKQSNNKYAAKSYLSLTPEQWKSHRSYSCQVTHEGSTVEKTVAPTECS
heavy: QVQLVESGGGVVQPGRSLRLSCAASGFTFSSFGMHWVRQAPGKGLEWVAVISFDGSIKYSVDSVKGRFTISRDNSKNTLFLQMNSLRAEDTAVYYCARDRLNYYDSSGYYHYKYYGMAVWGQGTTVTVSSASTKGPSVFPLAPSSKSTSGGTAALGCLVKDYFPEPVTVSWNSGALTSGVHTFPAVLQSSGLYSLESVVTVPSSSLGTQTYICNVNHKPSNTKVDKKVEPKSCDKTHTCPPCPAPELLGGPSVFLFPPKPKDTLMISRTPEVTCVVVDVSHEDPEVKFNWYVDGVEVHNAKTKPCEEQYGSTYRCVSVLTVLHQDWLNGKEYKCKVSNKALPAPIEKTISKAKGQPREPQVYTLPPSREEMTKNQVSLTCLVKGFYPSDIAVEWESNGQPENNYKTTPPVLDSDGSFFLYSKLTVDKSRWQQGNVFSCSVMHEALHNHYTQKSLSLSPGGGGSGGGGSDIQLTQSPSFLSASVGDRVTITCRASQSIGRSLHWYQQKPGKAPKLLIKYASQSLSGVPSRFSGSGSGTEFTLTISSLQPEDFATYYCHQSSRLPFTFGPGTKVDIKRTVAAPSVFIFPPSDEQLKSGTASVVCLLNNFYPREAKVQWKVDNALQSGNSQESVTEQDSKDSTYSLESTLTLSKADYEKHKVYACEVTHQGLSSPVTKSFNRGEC
chain: QVQLVESGAEVVKPGASVKVSCKASGFTFSRFAMHWVRQAPGQGLEWMGVISYDGGNKYYAESVKGRVTMTRDTSTSTLYMELSSLRSEDTAVYYCARGYDVLTGYPDYWGQGTLVTVSSASTKGPSVFPLAPSSKSTSGGTAALGCLVKDYFPEPVTVSWNSGALTSGVHTFPAVLQSSGLYSLKSVVTVPSSSLGTQTYICNVNHKPSNTKVDKKV
For the molecule B9, in the experiment with human PAC1 receptor, the “Human PAC1 Receptor IC50” value was greater than 1000 nM. Also, the “Human CGRP Receptor IC50” value with human CGRP receptor was 0.55 nM.

B10: iPS:392533 (bispecific antibody, human IgG1, kappa, lambda, N297G)
light: QSVLTQPPSVSAAPGQKVTISCSGSSSNIGNNYVSWYQQLPGTAPKLLIYDNNKRPSGIPDRFSGSKSGTSTTLGITGLQTGDEADYYCGTWDSRLSAVVFGGGTKLTVLGQPKANPTVTLFPPSSEELQANKATLVCLISDFYPGAVTVAWKADGSPVKAGVETTKPSKQSNNKYAAKSYLSLTPEQWKSHRSYSCQVTHEGSTVEKTVAPTECS
heavy: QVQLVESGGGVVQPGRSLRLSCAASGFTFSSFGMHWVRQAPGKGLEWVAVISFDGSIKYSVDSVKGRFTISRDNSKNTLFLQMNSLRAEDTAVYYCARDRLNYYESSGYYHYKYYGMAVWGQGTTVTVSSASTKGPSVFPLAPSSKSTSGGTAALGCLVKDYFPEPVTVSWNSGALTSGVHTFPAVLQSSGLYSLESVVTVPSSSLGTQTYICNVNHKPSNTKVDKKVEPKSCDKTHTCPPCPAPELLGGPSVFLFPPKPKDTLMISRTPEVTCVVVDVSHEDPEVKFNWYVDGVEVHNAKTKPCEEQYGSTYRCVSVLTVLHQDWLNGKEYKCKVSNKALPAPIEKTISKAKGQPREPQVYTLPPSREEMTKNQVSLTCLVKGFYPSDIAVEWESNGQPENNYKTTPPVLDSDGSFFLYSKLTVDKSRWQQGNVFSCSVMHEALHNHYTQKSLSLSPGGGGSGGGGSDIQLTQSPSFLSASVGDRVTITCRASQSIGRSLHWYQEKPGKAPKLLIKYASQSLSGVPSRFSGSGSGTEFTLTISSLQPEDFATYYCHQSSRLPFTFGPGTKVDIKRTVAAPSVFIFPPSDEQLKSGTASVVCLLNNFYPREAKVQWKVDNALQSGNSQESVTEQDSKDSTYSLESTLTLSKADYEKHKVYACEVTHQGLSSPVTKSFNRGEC
chain: QVQLVESGAEVVKPGASVKVSCKASGFTFSRFAMHWVRKAPGQGLEWMGVISYDGGNKYYAESVKGRVTMTRDTSTSTLYMELSSLRSEDTAVYYCARGYDVLTGYPDYWGQGTLVTVSSASTKGPSVFPLAPSSKSTSGGTAALGCLVKDYFPEPVTVSWNSGALTSGVHTFPAVLQSSGLYSLKSVVTVPSSSLGTQTYICNVNHKPSNTKVDKKV
Take B10: the “Human PAC1 Receptor IC50” value with human PAC1 receptor came to 206 nM. Moreover, the “Human CGRP Receptor IC50” value in the experiment with human CGRP receptor turned out to be 0.59 nM.
